Test results published in article PMC5760199, “Structural insights into the assembly and polyA signal recognition mechanism of the human CPSF complex”.

B1: L3 PAS RNA wild-type (AAUAAA) (ssRNA)
RNA: CACACAAUAAAGGCAA
B2: L3 PAS RNA mutant (AAGAAA) (ssRNA)
RNA: CACACAAGAAAGGCAA

How the values were obtained:
[1] = target: CPSF160FL;WDR33 M1-K410 K46A/R47A;CPSF30 ZF1-3 (Homo sapiens;Homo sapiens;Homo sapiens, UniProt Q10570;Q9C0J8;O95639-3 1-1443;1-410;1-117, |K46A;R47A|); assay: fluorescence polarization; 20 mM Tris pH 7.5, 150 mM NaCl, 1 mM DTT, 0.05% Tween 20, 25 C, 0.1 nM labelled RNA; settings: protein: recombinant;recombinant;recombinant; tags: His6 (438B vector); copies: 1;1;1; label: 5' Atto532
[2] = target: CPSF160FL;WDR33 M1-K410;CPSF30 ZF1-5;Fip1CD (Homo sapiens;Homo sapiens;Homo …, UniProt Q10570;Q9C0J8;O95639-3;Q6UN15-4 1-1443;1-410;1-169;130-195, |||); assay: as above; settings: protein: recombinant;recombinant;recombinant;recombinant; tags: His6 (438B vector; Ni-NTA and Streptactin purified);;; copies: 1;1;1;1; label: 5' Atto532
[3] = target: CPSF160FL;WDR33 M1-K410;CPSF30 ZF1-3 (Homo sapiens;Homo sapiens;Homo sapiens, UniProt Q10570;Q9C0J8;O95639-3 1-1443;1-410;1-117, ||); assay: as above; settings: protein: recombinant;recombinant;recombinant; tags: His6 (438B vector; Ni-NTA and Streptactin purified);; copies: 1;1;1; label: 5' Atto532
[4] = target: CPSF160FL;WDR33 M1-K410 R49A/K50A;CPSF30 ZF1-3 (Homo sapiens;Homo sapiens;Homo sapiens, UniProt Q10570;Q9C0J8;O95639-3 1-1443;1-410;1-117, |R49A;K50A|); assay: as above; settings: protein: recombinant;recombinant;recombinant; tags: His6 (438B vector); copies: 1;1;1; label: 5' Atto532
[5] = target: T1, CPSF160FL;WDR33 M1-K410;CPSF30FL;Fip1FL (Homo sapiens;Homo sapiens;Homo …, UniProt Q10570;Q9C0J8;O95639-3;Q6UN15-4 1-1443;1-410;1-243;1-378, |||); assay: fluorescence polarization; error 0.09 in text, 0.90 in Table 2; 20 mM Tris pH 7.5, 150 mM NaCl, 1 mM DTT, 0.05% Tween 20, 25 C, 0.1 nM labelled RNA; settings: protein: recombinant;recombinant;recombinant;recombinant; tags: His6 (438B vector; Ni-NTA and Streptactin purified);;; copies: 1;1;1;1; label: 5' Atto532
[6] = target: T1, CPSF160FL;WDR33 M1-K410;CPSF30FL;Fip1FL; assay: fluorescence polarization; two repeats; 20 mM Tris pH 7.5, 150 mM NaCl, 1 mM DTT, 0.05% Tween 20, 25 C, 0.1 nM labelled RNA; settings: protein: recombinant;recombinant;recombinant;recombinant; tags: His6 (438B vector; Ni-NTA and Streptactin purified);;; copies: 1;1;1;1; label: 5' Atto532

CPSF160FL;WDR33 M1-K410;CPSF30 ZF1-5;Fip1CD, sequence (Q10570 whole entry, chain 1 of 4): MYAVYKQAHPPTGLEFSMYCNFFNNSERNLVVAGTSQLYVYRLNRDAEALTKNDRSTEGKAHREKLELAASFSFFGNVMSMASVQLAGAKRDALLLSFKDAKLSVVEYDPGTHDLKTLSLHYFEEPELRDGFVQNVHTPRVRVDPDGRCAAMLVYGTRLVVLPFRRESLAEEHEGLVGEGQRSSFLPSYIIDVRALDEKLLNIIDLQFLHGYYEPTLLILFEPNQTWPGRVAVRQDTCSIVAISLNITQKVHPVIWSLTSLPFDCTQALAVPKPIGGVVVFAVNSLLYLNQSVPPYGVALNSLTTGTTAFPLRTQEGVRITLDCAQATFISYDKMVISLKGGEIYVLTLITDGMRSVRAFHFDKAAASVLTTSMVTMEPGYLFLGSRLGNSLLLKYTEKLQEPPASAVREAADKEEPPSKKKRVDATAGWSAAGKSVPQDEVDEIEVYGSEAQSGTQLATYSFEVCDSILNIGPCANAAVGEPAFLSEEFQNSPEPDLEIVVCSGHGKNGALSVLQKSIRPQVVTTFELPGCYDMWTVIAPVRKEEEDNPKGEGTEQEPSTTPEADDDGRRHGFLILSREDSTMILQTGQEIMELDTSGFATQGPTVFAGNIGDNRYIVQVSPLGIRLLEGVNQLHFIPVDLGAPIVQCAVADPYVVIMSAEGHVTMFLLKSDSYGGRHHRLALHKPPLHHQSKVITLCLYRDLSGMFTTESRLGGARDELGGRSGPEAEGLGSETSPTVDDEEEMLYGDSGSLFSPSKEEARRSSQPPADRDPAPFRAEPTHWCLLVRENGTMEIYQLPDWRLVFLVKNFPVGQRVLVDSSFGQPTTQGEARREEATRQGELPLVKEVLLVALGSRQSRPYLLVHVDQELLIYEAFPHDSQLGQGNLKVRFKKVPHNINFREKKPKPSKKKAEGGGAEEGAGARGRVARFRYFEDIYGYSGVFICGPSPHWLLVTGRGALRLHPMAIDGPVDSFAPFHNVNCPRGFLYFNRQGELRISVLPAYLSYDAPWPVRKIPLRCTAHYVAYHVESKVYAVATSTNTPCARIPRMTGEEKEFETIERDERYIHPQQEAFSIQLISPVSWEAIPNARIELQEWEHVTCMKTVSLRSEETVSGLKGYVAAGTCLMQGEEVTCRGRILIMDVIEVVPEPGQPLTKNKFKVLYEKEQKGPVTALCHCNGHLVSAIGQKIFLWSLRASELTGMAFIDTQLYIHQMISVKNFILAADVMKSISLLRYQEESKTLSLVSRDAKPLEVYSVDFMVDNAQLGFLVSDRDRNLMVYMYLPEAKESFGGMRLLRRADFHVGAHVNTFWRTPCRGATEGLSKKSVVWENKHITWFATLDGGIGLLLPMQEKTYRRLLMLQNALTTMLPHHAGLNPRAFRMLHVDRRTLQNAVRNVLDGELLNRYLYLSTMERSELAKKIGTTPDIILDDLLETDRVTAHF
CPSF160FL;WDR33 M1-K410;CPSF30 ZF1-5;Fip1CD, sequence (Q9C0J8 1-410, chain 2 of 4): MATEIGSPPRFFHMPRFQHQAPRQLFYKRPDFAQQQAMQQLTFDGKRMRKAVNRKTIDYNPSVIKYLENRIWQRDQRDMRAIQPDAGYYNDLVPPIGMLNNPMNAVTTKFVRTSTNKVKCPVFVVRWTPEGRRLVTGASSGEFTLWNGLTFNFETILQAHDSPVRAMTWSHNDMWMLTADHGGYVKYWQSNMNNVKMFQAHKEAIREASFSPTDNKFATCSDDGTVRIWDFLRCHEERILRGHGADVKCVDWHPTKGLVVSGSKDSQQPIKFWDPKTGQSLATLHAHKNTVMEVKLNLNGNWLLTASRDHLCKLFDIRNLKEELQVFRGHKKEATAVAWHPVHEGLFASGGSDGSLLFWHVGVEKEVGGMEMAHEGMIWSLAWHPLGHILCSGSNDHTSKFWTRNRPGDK
CPSF160FL;WDR33 M1-K410;CPSF30 ZF1-5;Fip1CD, sequence (O95639 1-169, chain 3 of 4): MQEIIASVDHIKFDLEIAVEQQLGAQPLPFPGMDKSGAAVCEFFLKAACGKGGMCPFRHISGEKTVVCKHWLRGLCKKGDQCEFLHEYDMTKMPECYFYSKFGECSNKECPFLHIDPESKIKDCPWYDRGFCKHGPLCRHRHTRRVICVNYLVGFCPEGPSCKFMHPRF
CPSF160FL;WDR33 M1-K410;CPSF30 ZF1-5;Fip1CD, sequence (Q6UN15 145-210, chain 4 of 4): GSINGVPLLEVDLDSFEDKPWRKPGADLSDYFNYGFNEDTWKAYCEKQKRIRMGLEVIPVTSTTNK
T1 sequence (Q10570 whole entry, chain 1 of 4): as the sequence (Q10570 whole entry, chain 1 of 4) above
T1 sequence (Q9C0J8 1-410, chain 2 of 4): as the sequence (Q9C0J8 1-410, chain 2 of 4) above
T1 sequence (O95639 other isoform, or with tags, fused parts or gaps |||, chain 3 of 4): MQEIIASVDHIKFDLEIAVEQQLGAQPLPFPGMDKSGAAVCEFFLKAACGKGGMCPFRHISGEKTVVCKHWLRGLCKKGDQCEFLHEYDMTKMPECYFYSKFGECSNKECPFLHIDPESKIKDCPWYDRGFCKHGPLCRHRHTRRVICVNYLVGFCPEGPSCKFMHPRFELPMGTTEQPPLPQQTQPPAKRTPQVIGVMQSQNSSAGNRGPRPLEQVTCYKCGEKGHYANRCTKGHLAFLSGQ
T1 sequence (Q6UN15 other isoform, or with tags, fused parts or gaps |||, chain 4 of 4): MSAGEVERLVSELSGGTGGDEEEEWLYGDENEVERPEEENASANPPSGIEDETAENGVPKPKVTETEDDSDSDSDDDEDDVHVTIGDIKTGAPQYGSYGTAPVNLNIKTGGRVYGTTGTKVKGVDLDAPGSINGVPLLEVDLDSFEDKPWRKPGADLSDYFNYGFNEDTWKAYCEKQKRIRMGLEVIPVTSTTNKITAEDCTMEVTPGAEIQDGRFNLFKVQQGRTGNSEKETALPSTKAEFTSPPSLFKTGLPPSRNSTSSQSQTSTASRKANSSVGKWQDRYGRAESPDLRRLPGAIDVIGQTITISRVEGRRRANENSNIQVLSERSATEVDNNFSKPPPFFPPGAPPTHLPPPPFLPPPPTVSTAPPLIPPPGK
CPSF160FL;WDR33 M1-K410;CPSF30 ZF1-3, sequence (Q10570 whole entry, chain 1 of 3): as the sequence (Q10570 whole entry, chain 1 of 4) above
CPSF160FL;WDR33 M1-K410;CPSF30 ZF1-3, sequence (Q9C0J8 1-410, chain 2 of 3): as the sequence (Q9C0J8 1-410, chain 2 of 4) above
CPSF160FL;WDR33 M1-K410;CPSF30 ZF1-3, sequence (O95639 1-117, chain 3 of 3): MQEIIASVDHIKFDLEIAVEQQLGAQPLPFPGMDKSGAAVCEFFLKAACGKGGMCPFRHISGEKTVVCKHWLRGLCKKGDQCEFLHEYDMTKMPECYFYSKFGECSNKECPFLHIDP
CPSF160FL;WDR33 M1-K410 R49A/K50A;CPSF30 ZF1-3, sequence (Q10570 whole entry, chain 1 of 3): as the sequence (Q10570 whole entry, chain 1 of 4) above
CPSF160FL;WDR33 M1-K410 R49A/K50A;CPSF30 ZF1-3, sequence (Q9C0J8 1-410 R49A/K50A, chain 2 of 3): as the sequence (Q9C0J8 1-410, chain 2 of 4) above, with R49A, K50A counted along it
CPSF160FL;WDR33 M1-K410 R49A/K50A;CPSF30 ZF1-3, sequence (O95639 1-117, chain 3 of 3): as the sequence (O95639 1-117, chain 3 of 3) above
CPSF160FL;WDR33 M1-K410 K46A/R47A;CPSF30 ZF1-3, sequence (Q10570 whole entry, chain 1 of 3): as the sequence (Q10570 whole entry, chain 1 of 4) above
CPSF160FL;WDR33 M1-K410 K46A/R47A;CPSF30 ZF1-3, sequence (Q9C0J8 1-410 K46A/R47A, chain 2 of 3): as the sequence (Q9C0J8 1-410, chain 2 of 4) above, with K46A, R47A counted along it
CPSF160FL;WDR33 M1-K410 K46A/R47A;CPSF30 ZF1-3, sequence (O95639 1-117, stated change not applied, chain 3 of 3): as the sequence (O95639 1-117, chain 3 of 3) above

Binder | Kd [1] | Kd [2] | Kd [3] | Kd [4] | Kd [5] | Kd [6]
B1 | 7.78 ± 0.78 nM | 0.11 ± 0.03 nM | < 0.1 nM | 2.42 ± 0.66 nM | 0.65 ± 0.09 nM | 
B2 |  | 70 ± 6 nM | 43 ± 2 nM |  |  | 120 ± 23 nM
